Results taken from US10969392B2, “Methods and systems for predicting response to immunotherapies for treatment of cancer” (Vanderbilt University, priority 2015, dated 2021).
“Also recorded” adds a separate entry of the source.

How the values were obtained:
Format in all cases: cell-based, human
[1] = test system: melanoma cell lines; experiment: IFNγ stimulation of melanoma cell lines, flow cytometry for HLA-DR and PD-L1; details: for HLA-DR surface expression: 100 ng/mL; for HLA-DR expression by flow cytometry: Example 5
Procedure: (§1) FIGS. 3A-F show characterization of MHC-II(+) melanoma cell lines. Melanoma cell lines were treated with IFNy for 24 h before collection and live-cell staining and flow cytometry analysis for (A) MHC-I (HLA-A/B/C), (B) MHC-II (HLA-DR), and (C) PD-L1. Bars represent mean ±S.E.M. for at least three experiments (D) Representative flow plots from (C). (E) Western blot analysis of melanoma cell lines after 24 or 48 h of IFNy stimulation. (F) Phosphorylation of STAT1 (top row) and STAT5 (bottom row) in melanoma cell lines at 15 min after IFNy stimulation. Histograms were coloured according to the arcsinh transformed ratio or MFI medians relative to the table minimum value.
FIGS. 4A-D show graphs illustrating mean expression levels of MHC-I, MHC-II, and PD-L1 at baseline and after IFNy stimulation. Melanoma cell lines were treated with 100 ng IFNy for 24 hr (shown as percentage positive in FIGS. 2A-C) prior to harvest and live-cell staining and flow cytometry analysis for (A) MHC-I/HLA-A/B/C, (B) MHC-II/HLA-DR, and (C) PD-L1. Bars represent mean fluorescence intensity ±SEM for 3 experiments. (D) Histograms of HLA-DR surface expression over an extended (24-72 hr) IFNy treatment, as assessed by flow cytometry.
Cell surface expression mirrored mRNA expression patterns; MHC-I (HLA-A/B/C) was expressed ubiquitously among all cell lines under both basal and stimulated conditions, while MHC-II (HLA-DR) was present only on the intermediate/Ib (SKMEL5 and SKMEL28) and high/Ia cell lines (WM115 and A375; FIGS. 3A-C and 4A-D). […] The high (Ia) WM115 cell line was essentially 100% positive for HLA-DR at both basal and stimulated conditions.
Standard Flow Cytometry. Flow cytometry was performed using the following antibodies: HLA-DR/PE-Cy7 (Biolegend, clone L243. 1:20). CD274/PD-L1/APC (Biolegend, clone 29E.2A3, 1:200) and HLA-A/B/C-Alexa Fluor488 (1:100, Biolegend, clone W6/32) mouse MHC-II (I-A/I-E 1:20 Biolegend, clone M5/114.15.2). DAPI was used as a viability dye. Samples were analyzed on an Aria III laser system (BD Biosciences)
Cell and tumor culture. SKMEL-28 and WM115 cell lines were obtained from Dr. Kimberly Dahlman (Vanderbilt University), CHL-1 and HMCB melanoma cell lines were obtained from the laboratory of William Pao (Vanderbilt University). Cell line nature was not directly authenticated, but protein marker expression was consistent with published HLA-DRA mRNA expression patterns (CCLE). Cell lines were confirmed mycoplasma-free and cultured in DMEM containing 10% FBS. Stimulation with recombinant human IFNγ (R&D Systems) was performed at 100 ng/mL. For PDX models and ex-vivo organotypic culture, tumors were freshly resected and sectioned using an Alto tissue matrix sectioner (Roboz Surgical, Gaithersburg, Md.).
Methods. MHC-I/II mRNA was profiled across 60 MEL cell lines. The transcriptional characteristics of MHC-II+ cell lines were analyzed by Gene Set Analysis. Cell surface expression of MHC-I and MHC-II was confirmed by flow cytometry (FC) in a subset of cell lines under basal and stimulated (IFNγ) conditions. In 26 tumor samples from αPD-1 treated MEL patients, immunohistochemistry (IHC) was performed for HLA-DR (MHC-II) or HLA-A (MHC-I), SOX10, CD4 and CD8. IHC results were correlated with response and progression-free survival (PFS).

[2] = test system: melanoma cell lines; experiment: IFNγ stimulation of melanoma cell lines, Western blot and phospho-flow (STAT1, STAT5, CIITA)
Procedure: as §1
Immunoblotting Immunoblotting was performed as previously described^32 Briefly, cells were washed in cold phosphate-buffered saline, collected and lysed in 1×RIPA buffer (50 mM Tris (pH 7.4), 1% NP-40, 150 mM NaCl, 1 mM EDTA, 0.1% SDS, 0.25% sodium deoxycholate, 5 mM NaF, 5 mM Na3VO4, 10% glycerol, […] phenylmethyl-sulphonylfluoride and protease inhibitors) for 30 min on ice. Lysates were sonicated for 2-3 s to shear DNA and cleared by centrifugation at 13,200 r.p.m. for 15 min. Protein concentrations of the lysates were determined by BCA assay (Bio-Rad, Hercules, Calif.). Samples were separated by SDS-PAGE and transferred to nitrocellulose membrane. Membranes were blocked with 5% non-fat dry milk or 5% bovine serum albumin in tris-buffered saline with 0.1% Tween-20 for 1 h at room temperature and then incubated overnight at 4° C. with the appropriate antibody as indicated. Following incubation with appropriate horseradish peroxidase-conjugated secondary antibodies, proteins were visualized using an enhanced chemiluminescence detection system. […]
Phospho-flow cytometry. […] Samples were analyzed on a LSRII system (BD Biosciences). […]

[3] = test system: PDX tumors from melanoma patients PT1 and PT2; experiment: Ex vivo organotypic culture of PDX tumour slices with or without IFNγ, Western blot for HLA-DR; details: PT1 (anti-PD-1 non-responder) and PT2 (responder) PDX, 24-48 h
Text: FIGS. 6A-D show Ex vivo culture of tumours derived from anti-PD-1-responding and non-responding patients identifies heterogeneity in interferon response. (A) Patient tumour blocks stained for HLA-DR (brown) and SOX10 (pink) at low (scale bar, 500 um) and high magnification (scale bar, […]); PT1: anti-PD-1 non-responder and PT2: anti-PD-1 responder. (B) Experimental schema. (C) Schema and images of PDX tissue sections (ex vivo organotypic culture). (D) Western blot analysis of tissue sections cultured in the presence or absence of IFNy for 24-48 h.
To test this hypothesis, patient-derived xenograft (PDX) models were utilized from the tumor resections of two melanoma patients who subsequently received anti-PD1 therapy; patient 1 (PT1; non-responder, 0% HLA-DR-positive, class II/III) and patient 2 (PT2; partial responder, heterogeneous 15% HLA-DR-positive, class Ib) (FIG. 6A). […] The resected tumors from PT1 and PT2 were serially transplanted to athymic nu/nu mice, which are highly deficient in functional T cells, ruling out a possible source of IFNγ (FIG. 6B). […] Thus, HLA-DR may be a marker of IFNγ activity in the microenvironment of some (but not all) tumors.
Cell and tumor culture. SKMEL-28 and WM115 cell lines were obtained from Dr. Kimberly Dahlman (Vanderbilt University), CHL-1 and HMCB melanoma cell lines were obtained from the laboratory of William Pao (Vanderbilt University). […]

B1: IFNγ: recombinant human IFNγ (R&D Systems) used at 100 ng/mL to stimulate melanoma cell lines and tumour slices (protein, UniProt P01579 24-161, looked up)
Interferon gamma: QDPYVKEAENLKKYFNAGHSDVADNGTLFLGILKNWKEESDRKIMQSQIVSFYFKLFKNFKDDQSIQKSVETIKEDMNVKFFNSNKKKRDDFEKLTNYSVTDLNVQRKAIHELIQVMAELSPAAKTGKRKRSQMLFRG
- HLA-DR surface expression ([1]; CHL-1 or HMCB cells, up to 72 hrs): No significant increase
- HLA-DR expression by flow cytometry ([1]; MHC-II+ (mRNA) cell lines): constitutive and inducible
- HLA-DR expression by flow cytometry ([1]; MHC-II− cells): did not express or induce
- HLA-DR surface expression ([1]; SKMEL28 (intermediate/Ib), 25% positive at baseline, 24 h): potently induced
- PD-L1 expression ([1]; all cell lines tested, 24 h stimulation): significantly upregulated; also recorded: potently induced
- CIITA expression ([2]; Western blot, 24 or 48 h stimulation): only induced in HLA-DR+Ia/Ib cells
- STAT1 activation ([2]; all cell lines, Western blot 24 or 48 h, phospho-flow 15 min): robustly activated
- STAT5 activation ([2]; phospho-flow, 15 min stimulation, 100 ng/mL): preferentially activated by IFNγ in MHC-II(−) cell lines
- HLA-DR upregulation in cultured tissue slices [3]: only the PT2 PDX model (anti-PD-1 responder) upregulated HLA-DR
